Measured values: patent US20150086999

Target: Q13093
Assay: estimated from residual CAM activity after 10 days at 4 C against enzyme concentration (dilution inactivation); self-association

B1: recombinant lipoprotein-associated phospholipase A2 (rLp-PLA2) expressed in HEK293 cells (protein)
chain: FDWQYINPVAHMKSSAWVNKIQVLMAAASFGQTKIPRGNGPYSVGCTDLMFDHTNKGTFLRLYYPSQDNDRLDTLWIPNKEYFWGLSKFLGTHWLMGNILRLLFGSMTTPANWNSPLRPGEKYPLVVFSHGLGAFRTLYSAIGIDLASHGFIVAAVEHRDRSASATYYFKDQSAAEIGDKSWLYLRTLKQEEETHIRNEQVRQRAKECSQALSLILDIDHGKPVKNALDLKFDMEQLKDSIDREKIAVIGHSFGGATVIQTLSEDQRFRCGIALDAWMFPLGDEVYSRIPQPLFFINSEYFQYPANIIKMKKCYSPDKERKMITIRGSVHQNFADFTFATGKIIGHMLKLKGDIDSNVAIDLSNKASLAFLQKHLGLHKDFDQWDCLIEGDDENLIPGTNINTTNQHIMLQNSSGIEKYN
How did the “concentration at which half is monomer and half aggregate or oligomer” value turn out when B1 was run?
Its value is “At the concentration at 2.5 µg/ml or 53 nM, roughly half of rLp-PLA2 is in monomer and half forms the aggregate or oligomer as estimated”.
